{"source": "patent US20240192215A1", "key": {"Peptide_044 (human)": {"target": "T1, Peptide_044 (human)", "T1 sequence (peptide)": "FSATWCGPCKMIKPF", "assay": "peptide microarray, secondary antibody only"}, "Peptide_051 (human)": {"target": "T2, Peptide_051 (human)", "T2 sequence (peptide)": "PCKMIKPFFHSLSEK", "assay": "peptide microarray, secondary antibody only"}, "Peptide_092 (human)": {"target": "T3, Peptide_092 (human)", "T3 sequence (peptide)": "PTFQFFKKGQKVGEF", "assay": "peptide microarray, secondary antibody only"}, "Peptide_096 (human)": {"target": "T4, Peptide_096 (human)", "T4 sequence (peptide)": "FFKKGQKVGEFSGAN", "assay": "peptide microarray, secondary antibody only"}, "Peptide_097 (human)": {"target": "T5, Peptide_097 (human)", "T5 sequence (peptide)": "FKKGQKVGEFSGANK", "assay": "peptide microarray, secondary antibody only"}, "Full-length mouse IgG [1]": {"target": "Full-length mouse IgG", "assay": "microarray control spot; secondary antibody only"}, "Human_IgG [2]": {"target": "Human_IgG", "assay": "microarray control spot; secondary antibody only"}, "Full-length mouse IgG [3]": {"target": "Full-length mouse IgG", "assay": "microarray control spot; secondary antibody after B264 1 ug/mL"}, "Human_IgG [4]": {"target": "Human_IgG", "assay": "microarray control spot; secondary antibody after B264 1 ug/mL"}, "Full-length mouse IgG [5]": {"target": "Full-length mouse IgG", "assay": "microarray control spot; secondary antibody after B264 5 ug/mL"}, "Human_IgG [6]": {"target": "Human_IgG", "assay": "microarray control spot; secondary antibody after B264 5 ug/mL"}, "Full-length mouse IgG [7]": {"target": "Full-length mouse IgG", "assay": "microarray control spot; secondary antibody after B266-1 1 ug/mL"}, "Human_IgG [8]": {"target": "Human_IgG", "assay": "microarray control spot; secondary antibody after B266-1 1 ug/mL"}, "Full-length mouse IgG [9]": {"target": "Full-length mouse IgG", "assay": "microarray control spot; secondary antibody after B266-1 5 ug/mL"}, "Human_IgG [10]": {"target": "Human_IgG", "assay": "microarray control spot; secondary antibody after B266-1 5 ug/mL"}, "Full-length mouse IgG [11]": {"target": "Full-length mouse IgG", "assay": "microarray control spot; secondary antibody after B264 0.2 ug/mL"}, "Human_IgG [12]": {"target": "Human_IgG", "assay": "microarray control spot; secondary antibody after B264 0.2 ug/mL"}, "Full-length mouse IgG [13]": {"target": "Full-length mouse IgG", "assay": "microarray control spot; secondary antibody after B264 0.04 ug/mL"}, "Human_IgG [14]": {"target": "Human_IgG", "assay": "microarray control spot; secondary antibody after B264 0.04 ug/mL"}, "Full-length mouse IgG [15]": {"target": "Full-length mouse IgG", "assay": "microarray control spot; secondary antibody after B266-1 0.2 ug/mL"}, "Human_IgG [16]": {"target": "Human_IgG", "assay": "microarray control spot; secondary antibody after B266-1 0.2 ug/mL"}, "Full-length mouse IgG [17]": {"target": "Full-length mouse IgG", "assay": "microarray control spot; secondary antibody after B266-1 0.04 ug/mL"}, "Human_IgG [18]": {"target": "Human_IgG", "assay": "microarray control spot; secondary antibody after B266-1 0.04 ug/mL"}, "Full-length mouse IgG [19]": {"target": "Full-length mouse IgG", "assay": "microarray control spot; secondary antibody after B264 0.0016 ug/mL"}, "Human_IgG [20]": {"target": "Human_IgG", "assay": "microarray control spot; secondary antibody after B264 0.0016 ug/mL"}, "Full-length mouse IgG [21]": {"target": "Full-length mouse IgG", "assay": "microarray control spot; secondary antibody after B266-1 0.0016 ug/mL"}, "Human_IgG [22]": {"target": "Human_IgG", "assay": "microarray control spot; secondary antibody after B266-1 0.0016 ug/mL"}, "Full-length mouse IgG [23]": {"target": "Full-length mouse IgG", "assay": "microarray control spot; secondary antibody after B264, head 0.08 ug (text 0.008 ug/mL)"}, "Human_IgG [24]": {"target": "Human_IgG", "assay": "microarray control spot; secondary antibody after B264, head 0.08 ug (text 0.008 ug/mL)"}, "Full-length mouse IgG [25]": {"target": "Full-length mouse IgG", "assay": "microarray control spot; secondary antibody after B266-1, head 0.08 ug (text 0.008 ug/mL)"}, "Human_IgG [26]": {"target": "Human_IgG", "assay": "microarray control spot; secondary antibody after B266-1, head 0.08 ug (text 0.008 ug/mL)"}}}
{"substance": "fluorescence-labeled secondary anti-mouse-IgG antibody (anti-mouse IgG(H+L) (Thermo 84545))", "values": [{"measurement": "signal (blank-control = 1)", "setting": "Peptide_044 (human)", "result": 1.73}, {"measurement": "signal (blank-control = 1)", "setting": "Peptide_051 (human)", "result": 0.47}, {"measurement": "signal (blank-control = 1)", "setting": "Peptide_092 (human)", "result": 2.28}, {"measurement": "signal (blank-control = 1)", "setting": "Peptide_096 (human)", "result": 1.18}, {"measurement": "signal (blank-control = 1)", "setting": "Peptide_097 (human)", "result": 1.34}, {"measurement": "signal (blank-control = 1)", "setting": "Full-length mouse IgG [1]", "result": 54.6}, {"measurement": "signal (blank-control = 1)", "setting": "Human_IgG [2]", "result": 46.6}, {"measurement": "signal (blank-control = 1)", "setting": "Full-length mouse IgG [3]", "result": 24.5}, {"measurement": "signal (blank-control = 1)", "setting": "Human_IgG [4]", "result": 20.8}, {"measurement": "signal (blank-control = 1)", "setting": "Full-length mouse IgG [5]", "result": 7.16}, {"measurement": "signal (blank-control = 1)", "setting": "Human_IgG [6]", "result": 6.7}, {"measurement": "signal (blank-control = 1)", "setting": "Full-length mouse IgG [7]", "result": 65.4}, {"measurement": "signal (blank-control = 1)", "setting": "Human_IgG [8]", "result": 52.8}, {"measurement": "signal (blank-control = 1)", "setting": "Full-length mouse IgG [9]", "result": 47}, {"measurement": "signal (blank-control = 1)", "setting": "Human_IgG [10]", "result": 35.8}, {"measurement": "signal (blank-control = 1)", "setting": "Full-length mouse IgG [11]", "result": 46}, {"measurement": "signal (blank-control = 1)", "setting": "Human_IgG [12]", "result": 36.3}, {"measurement": "signal (blank-control = 1)", "setting": "Full-length mouse IgG [13]", "result": 69.5}, {"measurement": "signal (blank-control = 1)", "setting": "Human_IgG [14]", "result": 48.1}, {"measurement": "signal (blank-control = 1)", "setting": "Full-length mouse IgG [15]", "result": 71.4}, {"measurement": "signal (blank-control = 1)", "setting": "Human_IgG [16]", "result": 49.6}, {"measurement": "signal (blank-control = 1)", "setting": "Full-length mouse IgG [17]", "result": 79.7}, {"measurement": "signal (blank-control = 1)", "setting": "Human_IgG [18]", "result": 49.7}, {"measurement": "signal (blank-control = 1)", "setting": "Full-length mouse IgG [19]", "result": 74.5}, {"measurement": "signal (blank-control = 1)", "setting": "Human_IgG [20]", "result": 45.7}, {"measurement": "signal (blank-control = 1)", "setting": "Full-length mouse IgG [21]", "result": 84.8}, {"measurement": "signal (blank-control = 1)", "setting": "Human_IgG [22]", "result": 35.4}, {"measurement": "signal (blank-control = 1)", "setting": "Full-length mouse IgG [23]", "result": 76.3}, {"measurement": "signal (blank-control = 1)", "setting": "Human_IgG [24]", "result": 52.6}, {"measurement": "signal (blank-control = 1)", "setting": "Full-length mouse IgG [25]", "result": 74.6}, {"measurement": "signal (blank-control = 1)", "setting": "Human_IgG [26]", "result": 47.9}]}
